Test results taken from the domain aggregation screens of Martell et al. (2025).

Test: soluble fraction after stress (log2 fold change); higher = more stays soluble; pooled small domains, quantitative proteomics
Conditions: stress: pH 4
In short: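 Aggregation propensity here comes from the fold change in the soluble amount of each small protein domain after acid stress, measured in pooled custom libraries by high-throughput quantitative proteomics. The acid stress was pH 4. On the log2 scale, higher values mean more of the domain stayed soluble.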

Sequence | soluble fraction (log2)
HMKEAISIYPNPVKDILTIRGMDETSGVSFKLYDVTGNLLLESTHSELDMSGLNRGVYFLDIAGDVRKVVK | -1.07
HMQDGTILPGQKTAIRSLATSGGYDSQDLDTYLATTYGKSIDGLTRTEGADVIKAFQAGTVAK | 0.165
HMDEYGEVQALQRAGQTSEALARADRHIAAHPNDPQMRFVKANLLSAGGRAGEAETLLVQLTRD | -0.176
HMKTEIKSPLPGIVLKIFVRTGEYVDKNQRLFSLEAMKMENEIKAERAGVIAGIRISEGQSVLQDEVIMEM | -0.288
HMENQGEDMRQQVKALVNADKTNITKLATATGYSRSTISMYLAGNYKGDVEAVERRLEEYMKTQG | 0.167
HMKVTRWEDTGMKPAEAQEWQHYDFKPQEAMNWRDAGFVPLVARTWSDKGFDASEAQAWRDSVRNS | 0.123
HMDSALKDDLNAFVKKLDVESQTLFMRRYFLGESVSSLASRFEMSEDNVGVKLFRIRAKLKKYLTGKGYD | -0.445
HMETKVIVPKVTGMNSKSAINYLSARGLKYKAVPADSGKSFHVVDQYPKSGTKVSPHSTVYLYS | 0.386
HMEDKIIVTVPGEYHLERIDRFLAANLEEDLSRSLIQRYIRENLITVNGEAVRANYKVKTDDEILITFPQ | -1.04
HMDDKVGKVFNYVQEKILTGEWDIGDKITPEISLSKELGVSRSVVREAIKKFVALNILSRTQGGGTYVNNL | -0.621
HMEKTIQIYDNIIIKDFAEKMEVSPSQVITKLIGLGVMANLNQPIDINSAVIVGKEFGFNVESM | -0.952
HMESYDSEIKEVLDLAGKGRWEEAQTKADALREMAPNNSLVERLHGWVLQAAHQRREQALENDIRE | 0.101
HMDREQLELYVGEVRVLQVGELRRIAIGNGKVLQASALDRGQLLLIPEAPGQSVLYLWTRDGTERHLSISV | -0.81
HMTDDPGLSRAENRELQTLLLDRGHDIGQPDGLIGAKTRAAIRAEQSRLNMPVNGRGGQKLLRALRL | -0.46
HMDLHERISSVLLGTGKSNDELAQILGVNKNTISAYKNKHGDLKGIVLEGIVKHFDINPVWLLTGSGTR | 0.0745
HMKQISNTDELESMAKNIIQENPDQVSKFKNGNEKLFGWFVGQMMKSTGGTANPKVVNEILKNLLN | 0.162
HMGTDGLKDIVLEILKEHPNQLAELIDGKQKVLGFLVGQVMKKTNGAANPKEVNEIIQGEIKK | -0.433
HMSTRYVRTPAGQAEIQARVFKLSRPVRNLLLVINDSRSIDDWLVQVHGITADDVAMLRAEGLIAEVS | -0.214
HMKASEMKKGQTIKIDGVLYVIVDFQHVKLSKGGAVYQTKLRNLAAGGIRDIRIRAEEVLEDA | -0.515
HMRGPDLSKDFHEYISSQWMFFGRNAYQIAEQINKDTQLMSKYGKTTPSGVHYHIKQIQQEMEN | -0.984
HMRKDYTVLYSAVNAEEATEIVSKLQESGVAYQYKDNGDVLVDKKQVDKVRAQLAQEGYPKS | -0.204
HMQVTGLTAENAHRVTMIREKGTDHPPVPFHFRKEHHGTGNYVHLYGNPEDRNELHSRDFKDWEAVAFK | 0.319
HMNQPRQRKVIFELIDERNALERVLMHFAHLEKQVEKIDERKYQVTLYYDKEDETEILIRVLSFG | -1.16
HMSNNENSILEKLNSFSGKKIKVSHTIGSLAARLDEYPKIKMWLYKRIRENSINEQAYKYLIFIIERKVR | -0.0495
HMEDLAERLDNLSTMYAKMDPVRAAQVLLESKNKSENIEVLKRLKPKSLGLILENMPPREAYDYVSELQ | 0.0298
HMVWINIRDLSDLFSKSGKSENSKNILDLQTLKIEKLLGGGQINTPYTIKVKQATPSAIEKVKQAGGEVIL | -0.00604

Sequence | soluble fraction (log2)
HMPVSVAEQKQILAEALQERGHATFRELIENADNRMIVVGRFLALLELYRDGTVRFEQERALGELTIHWEE | -1.22
HMIVDINDVRIDKYIADNTDYSRNLILNLIKNGDILVNDSKIKPSYKVKQGDKITINNVKTD | -0.284
HMEQKELAPLVPQEDGSVKLTNLAGYSMREVAAALEGGNLSLIPIGSGTSWKQDPAPGTVLQPGNTVTVYF | -0.209
HMNAMKPVLTVSLGVHTDSLSRRLNEEGIIYRWQQAASEQLLLVDSESSSERIAELIHDWRLEQSSS | -0.051
HMTVPAGIVLSSIRQDGDVLHIRGTAQSTERLNFFRNSFSASWGSPAQNGKRKADPVTGLVDFTISLK | -1.16
HMGFVTVTEVDTTADLKLARVYVSVLGPEEQWAKSFTALESARGFVWNWLRKHLDLRVTPQLAF | -1.74
HMLSDADLAAFREVFDLVDKDKSGAIEMEEVEELTKLLGLDLTRDEVELLVREIDKDGNGEVDFEEFLLVM | -0.115
HMYYQEDHDIILEETEDVTDPYLITLRGYIFLNNLQWVAARQAFLSADERFRHRHYSALIAPIMQTIDNAA | -1.49
HMRTITYSITPAHAGMSVERYLKQQHGYSTRTLVKLKHYPQGLQLNGQHARTVDLLQAGDTLAVTFLD | 0.145
HMAQASEPMLALIRLKWWEEQINSPVKGDSLPLLSQLNSHISAGYLSRSQVTSLIQRWQDYA | -1.18
HMEDPFLWVEKLGSSDWIEREESAEKLLEAGEASVEALRTALTHPDLEVRERVRELLSVISPL | -1.82
HMAGTPAIVKWFNPTKGFGFVTPKEAGSDALLHASVLAKRGKRWLQEGTLVEVLIEEGPKGLVVSELLTIE | -0.659
HMDDNMNEQWKMILNSIAKKGSVTRQETEKILGIGQTRAHVLLKAMIHAGMIKAVGDGKKRRYVR | ≥ 0.43
HMAEPYDEDKVMEHLYIKGKDVVIAHLKHLKEHNEHVWLKKGVEWMQKNQDRLGFDMMEVIYVVHNH | -1.18
HMGRRSKAMLSSALDAVPGLGEMRRKALISQFGSLKKLRGATPEEIAAVPGIGPKLAAAVHEAVSG | 0.131
HMRDISTDTSAWTFQDIKRYYDPQDLLTEKQVGQALSLIKGRNLNPLLNEVYIVAYKKKNGGAEFSLIV | -0.286
HMEENIKKDIEVPNIEGLTIDEAKKRLKEVNLNISIEDMEEKEGTEIITQQLPKAGIKVKEGVAIIAY | -0.211
HMTPNRDDEHLQSLRDYYASNRRIPSLQRIAALLGFSSRSAAVKLMGRLADEGFVERTVDDDAWIPGSRFF | -0.194
HMRDQARQFFIDTWAKFQRHDALTPLEEKTAAIIALHPEYHRVLQNPESFITTDWRPESGDINPFMHL | -0.803
HMTLHDLFPQAVEFVSEKEMISTAELQRKLMISYNSAAKIIDQLLHVDFIQKSESAGKYSVLIK | -0.486
HMPKNRTDYVQDVLKSLGRPAHYKEITQIINAMLPKEAQYSAKSIQVVLGSSPLFIRVGTGTYALVE | -0.79
HMVNTYILNNKEYPIEIIRKNNKNTYLRVKEGKIIVTTNYLTSSFTINKLIKDNTSFINKALLKEN | -0.0629
HMDEEQIASRRALIMRAAREIMETQGMEALSIRKIAAMIQQTPGIIYHYFSGKEELMLAVVQEGYH | -0.219
HMTDTSFPRLGAPEEELLSFLAKWEIDAEDAHYTKFSLYYQSTGKMMRDWKATWRAWKERQSELNAQR | -1.05
HMPKNEHETKAIGNQTGGRVFLFLNTDNINRDYNMYISKQVKFVREISQEYYGKVAVFEDLYGNLWDLIE | -0.222
HMLIIDLPDFTNKKLSELQQWADANQITLKIVEKDVSSKPYDTILEQTPAKNKYEKIVKGSTMTVTVNIK | -0.272

Sequence | soluble fraction (log2)
HMTKIKAIFFDIDGTIRSFKTKTIPENTANTLKKLKEQGIKIFIATGRAPFHTTFLNDLLDFKFDGYITIN | -0.0405
HMDSIQMKNNSILYYGNTAGYLDAKRNTAVVDPMFRTDEMESYLSEQKGLSVEWASGTYDRLT | -0.921
HMKEINFTIEESAKGRLDKVIAENVADLTRSQVQSLIKKGQILVNDAPTTNRYQVKPNDQVIIKLPDPV | 0.0442
HMGYDLLFQQALGFHEQGRLNEAENIYRQILETAPNNPDILNLLGLIAQQKGLHAQAVDYFYQAIRL | -1.9
HMHSLLDDIPNVGEKRKRILLTHFQSLEEIKAATVEELERLPQINRKAAESIYTFFHSQPIR | 0.139
HMNDTPPELRAALDLLGLKWPLASVELRARYKDLAKQHHPDATGGDKQAEERLKDINRAYSLLKHRLAKQ | 0.144
HMVQISNTDDLYPIVQRIVDANPQSVEDYKNGKAKALGFLVGQMMKETKGKANPSMVNDLIIKAIEE | 0.0143
HMVTLYDGFLSELRKRIPRGAELTNTLVDMLYIEREAVYRRLRGEVPFTFIEVMTVSKELGISLDNLAQA | -0.802
HMRDANYFINPIHEWQKRYEALRASFVDRLPAQAVAQRFGYTITYIHLLRHQFKSGKIDFSEPVPEG | -1.91
HMVGIAEAMKHIADEDYGDLSAIFKQIFSDTDGGRNFSDAIRTQMRSTDSSGLRKVLSTLIMSIEE | -0.854
HMDYQYILVDVKDRIATVTINRPEYSNAFARESYYEIADAMNTLGARDDVGVIVITGAGKHFSAGGDIKRF | -0.652
HMWVETITTKAGITKYKFQERYTDTYSGKTKRVSVTYTSNSRQAYKLAQAELQKKIDLATNTD | 0.112
HMEAELNSLVKTYENMKPKAAAQVFEELDMDVLLDVVERMKEKKLAPILAQVTPTRAKEITYELTQRR | -0.0962
HMFMSDDDIRILVKEWLQSQNRKSYQLAEEIGIRPQTFYAQMSVRKISANTKKALSRIIPGL | 0.0503
HMLLNLSPIETQVLRLIQQDKKVTYESIGKELTIGQTKVYKVLGHLKELNVIERIGGRTYGHWHILL | -0.599
HMPPPTLVESAYNHLKADIISSYLKPDEKINLKDLSQRYQVSETPIKQALNRLISEGLIISVPRKGMWVH | 0.065
HMEEAQWEFKWENTDSAEIHGPHSSSEMLKWQENSFFAKGVYVRKVGGDTTDFTDGKRIDFDLY | -1.69
HMNSVSARRSAAITAISTGRIHSQEDLVQALKKAGYPVTQATASRDIEEIGAVRIRNQKGEMVYAIS | 0.321
HMSMNSWFVEKERDNTRIDKFLNEQMADISRSYIQKLIKDDLVTVDLRPVKANYKVKEGDRVEVTLPEPV | -0.0679
HMASDEVPGAGFKWREDVLLRVMEANGIDKSNRDDFVRHAVNFDDDDNNYLKKAEIEAAAAAWVESQSPA | -0.239
HMALGRTGEVYLPIPAGRAGHGKISITLQGALREVDAVTAGEALPRGTSVRVVDVAGNGVLLVEK | 0.32
HMGDKVLIQTAQRLKKDLPFASIVSRFGGDEFLIFLPGISSTERVETIVKKTVFLFIAISTTLF | -0.0999
HMNINLNVGKRLKSIRQNKELSLDEVSNLTNVSKPALAQIERGASSPTINTLWKISKGLKVPLSYFLQE | ≥ 0.43
HMIAAPFVVKDIRVDGVQPATGEAIISSLPVKVGQTATDADVSNVVRQLFSLNRFQNVQATREGNTLVIKV | 0.0417
